Laboratory results from US20190248888A1, “METHODS OF LOWERING BLOOD GLUCOSE LEVELS” (Regeneron Pharmaceuticals, Inc., priority 2016, published 2019).

Assays:
Slc38a5−/− mice = test: GCGR antibody in Slc38a5−/− mice and wildtype littermates; assay type: in vivo, mouse; conditions: 10 mg/kg weekly, 20 days
Description: Mice deficient in Slc38a5 (100% C57BL/6NTac) were generated by homologous recombination using Regeneron's VelociGene technology (Valenzuela et al., 2003, Nat Biotechnol 21:652-659). VelociGene allele identification number is VG15016. Both male and female mice were used for the study. […] Slc38a5^−/− mice and wildtype littermates were dosed with GCGR or control antibody (10 mg/kg; n=8) weekly for 20 days. Samples of blood and plasma as well as organ weights and pancreata were collected as outlined above.

pancreatic islets = test: Ki67 staining of cell proliferation in pancreatic islets; assay type: in vivo, mouse
Text: Ki67 staining was used to detect cell proliferation in pancreatic islets from GCGR-antibody treated mice. Cell proliferation was negligible in islets from control antibody treated mice and in non-Gcg(+) islet cells from GCGR-antibody treated mice (FIG. 3A). However, Ki67 staining was detected in GCG(+) cells from the GCGR-antibody treated mice (FIG. 3A).

B1: α-GCGR: potent monoclonal GCGR blocking antibody, HCVR/LCVR SEQ ID NOs: 86/88 (antibody, V domains shown)
VH: EVQLVESGGGLVQPGGSLRLSCAASGFTFSNYLMNWVRQAPGKGLEWLANIQEDGIEKYYVDSVKGRFTISRDNAKNSLYLQMNSLRAEDTAVYYCAREPSHYDILTGYDYYYGMDVWGQGTTVTVS
VL: DIQMTQSPSSLSASVGDRVTITCRASQGIRNDLGWYQQKPGKAPKRLIYAASSLQSGVPSRFSGSGSGTEFILTVSSLQPEDFATYYCLQYNSNPFTFGPGTKVDIK
Question: What does the source list for B1?
Answer: blood glucose levels in Slc38a5−/− mice compared with littermate control mice (Slc38a5−/− mice): to the same extent; reduction of the expansion of α-cell mass in Slc38a5−/− mice relative to treated control mice (Slc38a5−/− mice): 50%; plasma insulin levels (Slc38a5−/− mice; WT and Slc38a5−/− mice): No effects; α-cell mass or number of islets per pancreas area (FIGS. 5H and 5I) (Slc38a5−/− mice; WT and Slc38a5−/− mice): did not affect; proliferation rate in Slc38a5(+) relative to Slc38a5(−) α-cells (pancreatic islets; GCGR-antibody treated mice, 11 days): 4 times; Ki67 staining in GCG(+) cells (pancreatic islets; mice treated 11 days): detected
